Laboratory results published in publication PMC7006622.

Biological target: thrombin (UniProt P00734;P00734 328-363;364-622)
Experiment: single-molecule TIRF, transient Cy3 probe binding to switch; LOD 20 pM (not a Kd); no specific signal without thrombin; 1x PBS with oxygen scavenger system, 20 nM Cy3 probe, 25 +/- 1 C; switch immobilised on PEG/biotin-PEG streptavidin glass

B1: thrombin-responsive three-way-junction molecular switch (B4 + G13 + CP1, probed by FP1) (structured_DNA)
DNA 1: TGGGATGGTTGGTGTGGTTGGCCGTACTCTATGAGCCTCTG
DNA 2: TCAGTGGGGTTGGACGGGATGGTGCCTGACCGTGT
DNA 3: TTTTTCAGAGGCTCATAGAGTACGG
DNA 4: AAACACGGATCCCATA
- binding result: binds
